# System: MS2 coat protein
# Assay: apparent KD of MS2 coat protein; designed switch direction (-1 OFF switch, 1 ON switch): -1; higher = weaker reporter binding
# How it was run: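 Normalised cluster fluorescence was curve-fitted, and each design's median over clusters is its apparent KD. Before this, SNAP-549-labelled MS2 coat protein was titrated from 0.7 or 1.5 nM, doubling to 3 µM, over RNA switches transcribed on Illumina chips by stalled E. coli RNA polymerase. Titrations had no input, 200 uM small-molecule ligand, or an oligonucleotide input, and steps lasted 0.8–1.5 h (lowest) to 10–20 min (highest).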
# [1] = Eterna round: R95, input ligand: microRNA oligo, concentration not stated
# [2] = Eterna round: R95, input ligand: FMN 200 uM
# [3] = Eterna round: R95, input ligand: none
# [4] = input ligand: microRNA oligo, concentration not stated
Sequence,apparent KD of MS2 coat protein [1] [µM],apparent KD of MS2 coat protein [2] [µM],apparent KD of MS2 coat protein [3] [µM],apparent KD of MS2 coat protein (input ligand: FMN 200 uM) [µM],apparent KD of MS2 coat protein (input ligand: none) [µM],apparent KD of MS2 coat protein [4] [µM]
GUUAAGGUAGGAUAUACGAUAAUAUAGGGUAGAUAUAGAACACAUGAGGAUCACCCAUGUAGAAGGACCAAUUG [Mat - Exclusion 2 - Mod of my Tesla design - D54] (puzzle: Exclusion 2),0.0286,–,–,–,–,–
UAAAAGGUAGGAUAUACGAAAAAAAAGGGUAGAAAAAAAACACAUGAGGAUCACCCAUGUAGAAGGACCAAAAC [salish99_ex2_r3_047] (puzzle: Exclusion 2),0.0332,0.103,0.0303,–,–,–
"AGGUGUAGAGGAUAUCGAGUCCUUUACAUGAGGAUCACCCAUGUCCUGGGCACCCAGGACCGAGAAGGCUACACCA [Omei Ex5 D32] (Eterna round: R97, puzzle: Exclusion 5)",–,–,–,0.353,0.223,–
CUCUUGUCAGGAUAUCAACGCCGCCCACACAGGCGGCGAAAUGAGAAGGGACAUGAGGAUCACCCAUGUUAAAA [Tiaonbi] (puzzle: Exclusion 4),0.0861,0.0243,0.168,–,–,–
"CCGCUACAUGAGGAUCACCCAUGUCAGGAUAUCGUACGUUCGUCGAUAGACGAUCGUACGAGAAGGGUGAGCGG [Mat - Exclusion 1 - Eli Mod - D37] (Eterna round: R97, puzzle: Exclusion 1)",–,–,–,0.156,0.209,–
"UUAAUUAAUUAAUUAUAAGAUCAACAUGAGGAUCACCCAUGUGAGGAUAUCAGCUCGAUUAGAGCUGAGAAGGCACAAAUAAUU [ExNG3/16-B1] (Eterna round: R96, puzzle: Exclusion NG 3)",–,–,–,0.147,0.044,0.0536
"UUUAGUUCAGGAUAUGAUGAAAUUAACAUGAGGAUCACCCAUGUAGAUCCUGAAUUAACAUCAGAAGGGAACAUUU [JL-ex5-4.44 Brourd mod] (Eterna round: R97, puzzle: Exclusion 5)",–,–,–,0.0578,0.0108,–
"CUGCUGGAGCGUUGCUUUGGUCGUACAUGAGGAUCACCCAUGUAGGAUAUGGUAAAAUUUGCUUGCUAGAAGGAUAGAGUGGUC [salish99_ExNG3_r04_613] (Eterna round: R96, puzzle: Exclusion NG 3)",–,–,–,0.117,0.0646,0.0635
"GCACGGAGUGUAGGAUAUCUGUGCGAUUAGCUCAGAGAAGGACAUGAGGAUCACCCAUGUGUGUUCCAAUACUCAAAUCCGUGC [Eli exng1 - 064] (Eterna round: R96, puzzle: Exclusion NG 1)",–,–,–,0.71,0.0521,0.0554
UUUUAACAUGAGGAUCACCCAUGUGAGGAUAUCGAAAUUUAUAUUAAUAUUAAUUUUUCGAGAAGGCACAUUUU [JMF 33] (puzzle: Exclusion 1),0.143,–,–,–,–,–
"AGUACUAACACGAUAGUGUUAGUACAAUAAGCUUGUGAAACAUGAGGAUCACCCAUGUCCUCAUAAGCUCGUCUUAU [salish99_TOv2_r3_030] (Eterna round: R96, puzzle: Sensor v3, turn-off variant 2)",–,–,–,0.0151,0.0173,0.507
"CUCCUCAUGGCGCCUAAACACAUGAGGAUCACCCAUGUACAGGCUUUUUGCCGUCUUAUAAUAAAACCGAGGAGGCG [Atrelele] (puzzle: Sensor v3, turn-off variant 1)",0.146,0.021,0.0236,–,–,–
"GGUCAAGAACAGAUCCGCGCUGCCAUUGACCGCUCAUUUACAUGAGGAUCACCCAUGUUUUUUGCUCAUCUUGUUAC [Usdila] (puzzle: Sensor v3, turn-off variant 2)",0.0622,0.0202,0.0198,–,–,–
UUUCUCGUUGUGAGGAUAUCGUUUUUGUCUCGGAUCGAGAAGGCACAUGAGGAUCACCCAUGUUUGUUGUGGUU [JR_BMOE4_Sub089] (puzzle: Brourd's mod of Exclusion 4),0.0749,–,–,–,–,–
UAUACUAGAUAGGAUAUACUAUAUAUAUUUUUCGUAGAAGGAUCUACAUGAGGAUCACCCAUGUUAACAGCAGU [JR_E6_Sub007] (puzzle: Exclusion 6),0.0429,0.045,0.0415,–,–,–
CUUAGACAUGAGGAUCACCCAUGUGAGGAUAUGAAAUUAAUUAAUUAUUAAUUAUUAAUCAGAAGGCACAUAUG [Mat - Mod of Hyphema D38] (puzzle: Exclusion 1),0.0436,0.0798,0.0413,–,–,–
"GAAUUAAUUAAUUAAUAAUACAUGAGGAUCACCCAUGUAGAUCCUACAUACAAGCUUUGUAGCUCGUCUUAUAAUUA [Stov1/3-A2] (Eterna round: R97, puzzle: Sensor, turn-off variant 1)",–,–,–,0.33,0.48,–
"UUGAUGUCAUCAGGAUAUAGUAUUUAAGACAUAUCUUCUUUCAAACAUGAGGAUCACCCAUGUCGCUAGAAGGGAUGAAUGAUU [JR_ExcNG2_Sub085] (Eterna round: R96, puzzle: Exclusion NG 2)",–,–,–,–,–,0.0121
"AGUUGUUGCGCAGGAUAUGAGGAUCACCCAUAGAAGGAUAUCGAAAGAGAAGGUCUGAGGAUUACCCAGAAGGGCGUGAUGACA [pwkr exNG2 2xF5 2xFMN.8] (Eterna round: R96, puzzle: Exclusion NG 2)",–,–,–,0.905,0.184,0.13
"UACAUGAGGAUCACCCAUGUUUUGUCGUGUAUGGUAUUUAUCUAGGAUAUCAAUUGAUUUAGUUAUGAGAAGGAGAAUAUUAAU [JMF's solution 62] (Eterna round: R96, puzzle: Exclusion NG 3)",–,–,–,0.0272,0.0301,0.0206
UGGUGGAAGCAGGAUAUGCUAGAAGUGUAGUUUGCAGAAGGGCUAACAUGAGGAUCACCCAUGUAAGAGGUGUU [JR_E6_Sub053] (puzzle: Exclusion 6),0.211,0.0942,0.29,–,–,–
"GUAACAUGCUGGUGAUCAUACAUGAGGAUCACCCAUGUAACAAGCUUUUUGUUCGUCUUAUAAUUUAAGAUCACCAG [Stov1/7-B3] (Eterna round: R97, puzzle: Sensor, turn-off variant 1)",–,–,–,0.0198,0.0218,–
"GCUGUAGAAGGAUAUGCUUCGACUCACAUGAGGAUCACCCAUGUCUUCGUGCAGUCGUCUGCAGAAGGUCUCCAGU [EX5 C.8] (Eterna round: R97, puzzle: Exclusion 5)",–,–,–,1.82,0.504,–
"CUUUUGUGAGGAUAUCUGGCUUCGAUCGUGAGAUCGAGGCUAGAGAAGGCACAUGAGGAUCACCCAUGUUCCUU [jl-ex4-4.05 salish99 mod] (Eterna round: R97, puzzle: Exclusion 4)",–,–,–,0.0661,0.0199,–
CGUGCGUAUGUGAGGAUAUGCUGGUCCUUGGCUCGGCAGAAGGCACAUGAGGAUCACCCAUGUGGUGUCGUACA [salish99_Bmod_ex4_070] (puzzle: Brourd's mod of Exclusion 4),0.0694,–,–,–,–,–
"ACGUAGGUAGUUAGGAUAUUUAGUAUAUUUACAGUGAAGAAGGAACAUGAGGAUCACCCAUGUAGUGGUGUCCA [Eternabot (L1) Solution 68] (Eterna round: R97, puzzle: Brourd's mod of Exclusion 4)",–,–,–,1.2,3.18,–
"UUUCUCUGGGCGUCUUCUUACAUGAGGAUCACCCAUGUUUCGCAGGAUAUGCUAUAGUGUUAGAUGCAGAAGGGCGUUUGUUUU [JR_ExcNG3_Sub079] (Eterna round: R96, puzzle: Exclusion NG 3)",–,–,–,0.262,0.0925,0.0858
"UGAGCUUACGCAGGAUAUGAGGAUCACCCAUAGAAGGAUAUCGAAAGAGAAGGUCUGAGGAUUACCCAGAAGGGCGUGGGCUCU [pwkr exNG2 2xF5 2xFMN.11] (Eterna round: R96, puzzle: Exclusion NG 2)",–,–,–,1.29,0.131,0.125
"AAUUCACAUGAGGAUCACCCAUGUGAGGAUAUGGAUUCGCUGGCCGUAGCCAGUGGAUCCAGAAGGCGCGUGAU [JL-ex1-4.27] (Eterna round: R97, puzzle: Exclusion 1)",–,–,–,0.0605,0.0468,–
"ACAUGAGGAUCACCCAUGUGCACGUAAUGGCUCAUGUAGAGAGAGGAUAUGUGUGACGAACGAGCACAGAAGGCUCAAGACUGG [Deportation 14 - Jieux - Exclusion NG 3] (Eterna round: R96, puzzle: Exclusion NG 3)",–,–,–,0.202,0.179,0.133
